The record followed here is patent publication US20230406950A1 (LYVGEN BIOPHARMA, published 2023).

For assay [1], the target named is T1, human CD40 expressed on CHO cells (human, UniProt P25942 21-277).
T1 construct: whole, on cells
The experiment in a line: FACS on CHO cells expressing human CD40 (MFI). Here is the method:
(§1) Anti-CD40/CD137 bi-specific antibodies were analyzed by FACS for their binding properties to human CD40 and/or human CD137 expressed on CHO cells. Briefly, cultured cells were harvested, counted and cell viability was evaluated using the Trypan Blue exclusion method. Viable cells were then adjusted to 2×10⁶ cells per mL in PBS containing 2% BSA. 100 μL of this cell suspension were further aliquoted per well into a V-bottom 96-well plate. […] After incubation for 2 hours at 4° C., cells were centrifuged (3 min, 1000×g), washed with 250 μL/well BSA-containing FACS Stain Buffer, resuspended and incubated for an additional 1 hour at 4° C. with 100 μL/well fluorochrome-conjugated anti-IgG antibody for detection of the bisepecific antibody. Cells were then washed with 250 μL/well BSA-containing FACS Stain Buffer, resuspended in 100 μL/well FACS Stain Buffer, acquired and analyzed using a FACS machine. Binding of the bispecific antibodies to human CD40 or human CD137 expressing CHO cells were evaluated and the mean fluorescence intensity is plotted in histograms or dot plots.

The target in assay [2] is T2, human CD137 expressed on cells (human, UniProt Q07011 24-255).
T2 construct: whole, on cells; also called 4-1BB; TNFRSF9
T2 sequence (Q07011 24-255): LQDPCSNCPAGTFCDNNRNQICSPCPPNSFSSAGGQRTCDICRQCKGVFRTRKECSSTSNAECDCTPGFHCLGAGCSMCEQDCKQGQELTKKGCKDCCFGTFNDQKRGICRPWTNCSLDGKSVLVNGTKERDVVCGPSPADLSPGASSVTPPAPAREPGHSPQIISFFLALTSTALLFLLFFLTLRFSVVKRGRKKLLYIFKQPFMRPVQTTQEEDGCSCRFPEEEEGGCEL
The experiment in a line: FACS on CHO cells expressing human CD137 (MFI). As for the experimental part:
as §1

Assay [3] has as its target T3, human PD-1 expressed on cells (human, UniProt Q15116 25-288).
T3 construct: whole, on cells; also called human PD-1 over-expressed on the CHO cells; Jurkat/NFkB-Luci/PD-1 cells
Description: flow cytometry (FACS), MFI, CHO cells expressing human PD-1. In outline:
(§2)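 Viable CHO cells, 2×10⁶ cells/mL in PBS with 2% BSA, incubated with bispecific antibodies for 2 h at 4° C. Bound antibody detected with fluorochrome-conjugated anti-IgG, 1 h at 4° C. Read-out is mean fluorescence intensity by flow cytometry.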

Assay [4] deals with T2, human CD137 expressed on cells. The experiment in a line: flow cytometry (FACS), MFI, CHO cells expressing human CD137. In outline:
as §2

For assay [5], the target named is T4, human CD137 ECD protein (His tag) (human, UniProt Q07011 24-186).
T4 construct: extracellular domain; also called recombinant human CD137; not shown: His tag
The experiment in a line: bridging ELISA: human CD137 ECD (His tag) coated, antibody titrated, then human PD-1 ECD (mouse IgG2a Fc tag), HRP anti-mouse IgG2a Fc; A450-A620. Here is the method:
Exemplary anti-PD-1/CD137 bi-specific antibodies were analyzed by ELISA for their simultaneous binding to recombinant human PD-1 and human CD137. Briefly, human CD137 ECD protein (His tag) was diluted and coated onto an ELISA plate with a volume of 100 μL/well by incubation at 4° C. overnight. The next day, the plate was blocked with PBST-BSA buffer, then serially diluted samples of anti-PD-1/CD137 bi-specific antibodies were pipetted into appropriate wells at 50 μL/well, and the plate was incubated for 1 hour followed by washing. The extracellular domain (ECD) of human PD-1 protein (mouse IgG2a Fc tag) was added into the plate at 50 μL/well. After 1-hour incubation at room temperature, HRP-conjugated anti-Mouse IgG, Fc G2a specific antibody was added into the plate at 100 μL/well. The plate was incubated for 1 hour at room temperature followed by washing. TMB substrate solution was added at 100 μL/well and the color development was stopped by adding 100 uL/well Stop Solution (2N H₂SO₄). Absorbance at 450 nm and 620 nm was read by Tecan F200 Pro plate reader. GraphPad 7.0, “[Agonist] vs. response—Variable slope (four parameters)” was used to plot the binding data and calculate binding EC50 values.
For orientation: In an ELISA, binding on a coated surface is turned into a signal by an enzyme label.

T1 sequence (P25942 21-277): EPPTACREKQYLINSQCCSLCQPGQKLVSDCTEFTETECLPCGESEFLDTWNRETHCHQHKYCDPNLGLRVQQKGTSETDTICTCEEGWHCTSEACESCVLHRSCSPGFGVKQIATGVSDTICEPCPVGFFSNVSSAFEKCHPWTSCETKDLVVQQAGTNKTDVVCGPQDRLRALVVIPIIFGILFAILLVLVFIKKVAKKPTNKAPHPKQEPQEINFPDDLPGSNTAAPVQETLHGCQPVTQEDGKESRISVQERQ
T3 sequence (Q15116 25-288): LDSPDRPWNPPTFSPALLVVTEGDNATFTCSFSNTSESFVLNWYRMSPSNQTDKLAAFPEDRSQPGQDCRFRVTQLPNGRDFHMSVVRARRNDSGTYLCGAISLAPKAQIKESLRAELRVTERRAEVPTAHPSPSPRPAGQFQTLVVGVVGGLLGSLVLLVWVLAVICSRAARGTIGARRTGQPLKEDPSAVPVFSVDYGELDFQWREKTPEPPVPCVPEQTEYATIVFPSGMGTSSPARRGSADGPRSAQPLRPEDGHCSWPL

B1: Ly744 (bispecific antibody, human IgG1, kappa)
heavy: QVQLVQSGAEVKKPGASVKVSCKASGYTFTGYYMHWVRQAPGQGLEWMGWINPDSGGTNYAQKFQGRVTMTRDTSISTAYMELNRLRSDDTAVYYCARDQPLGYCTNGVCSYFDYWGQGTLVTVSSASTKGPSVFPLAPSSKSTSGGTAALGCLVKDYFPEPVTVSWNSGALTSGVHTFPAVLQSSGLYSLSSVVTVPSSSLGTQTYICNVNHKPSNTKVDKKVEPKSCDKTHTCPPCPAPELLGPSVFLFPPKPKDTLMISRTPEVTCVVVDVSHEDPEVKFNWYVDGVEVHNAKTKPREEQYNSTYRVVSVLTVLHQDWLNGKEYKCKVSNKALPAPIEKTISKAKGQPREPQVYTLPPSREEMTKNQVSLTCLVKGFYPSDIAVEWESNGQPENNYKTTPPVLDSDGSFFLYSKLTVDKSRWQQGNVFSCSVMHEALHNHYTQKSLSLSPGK
light: DIQMTQSPSSVSASVGDRVTITCRASQGIYSWLAWYQQKPGKAPNLLIYTASTLQSGVPSRFSGSGSGTDFTLTISSLQPEDFATYYCQQANIFPLTFGGGTKVEIKRTVAAPSVFIFPPSDEQLKSGTASVVCLLNNFYPREAKVQWKVDNALQSGNSQESVTEQDSKDSTYSLSSTLTLSKADYEKHKVYACEVTHQGLSSPVTKSFNRGECGGGGSGGGGSGGGGSGGGGSDIQMTQSPSSLSASVGDRVTITCRASQDIRSNLNWYQQKPGGAVKLLIYYTSRLHSGVPSRFSGSGSGTDYTLTISSLQPEDFATYFCQQSEKLPRTFGGGTKVEIRGGGGSGGGGSGGGGSGGGGSQVQLVQSGAEVKKPGASVKVSCKASGYTFAGFEMHWVRQAPGQGLEWMGAIDPKTGGTDYNQKFKDRVTMTRDTSISTAYMELSRLRSDDTAVYYCARDLGYFDVWGQGTLVTVSS
notes: Anti-CD40/CD137: Ly253-derived heavy chain; Ly253 light chain fused to Ly1630 scFv (VL-VH)
In the case of B1, in assay [1], the binding result was “binds”. Besides, the concentration giving a half-maximal response (EC50 (read off the curve)) (as a rule, the concentration needed to bring the measured effect to its halfway point) in assay [2] was roughly 0.1 µg/mL.

B2: Ly745 (bispecific antibody, human IgG1, kappa)
heavy: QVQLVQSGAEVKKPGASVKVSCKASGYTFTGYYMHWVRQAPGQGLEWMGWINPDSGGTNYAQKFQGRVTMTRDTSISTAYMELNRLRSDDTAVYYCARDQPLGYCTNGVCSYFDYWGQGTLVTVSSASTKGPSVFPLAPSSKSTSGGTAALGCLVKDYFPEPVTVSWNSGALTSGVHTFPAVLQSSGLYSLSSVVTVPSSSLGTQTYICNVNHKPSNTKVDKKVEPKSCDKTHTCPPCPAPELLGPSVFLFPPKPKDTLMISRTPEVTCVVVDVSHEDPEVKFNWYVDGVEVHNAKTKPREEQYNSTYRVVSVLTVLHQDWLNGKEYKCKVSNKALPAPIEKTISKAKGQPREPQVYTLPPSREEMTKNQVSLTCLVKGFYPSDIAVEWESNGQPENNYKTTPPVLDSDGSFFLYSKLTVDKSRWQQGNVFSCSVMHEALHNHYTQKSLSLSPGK
light: DIQMTQSPSSVSASVGDRVTITCRASQGIYSWLAWYQQKPGKAPNLLIYTASTLQSGVPSRFSGSGSGTDFTLTISSLQPEDFATYYCQQANIFPLTFGGGTKVEIKRTVAAPSVFIFPPSDEQLKSGTASVVCLLNNFYPREAKVQWKVDNALQSGNSQESVTEQDSKDSTYSLSSTLTLSKADYEKHKVYACEVTHQGLSSPVTKSFNRGECGGGGSGGGGSGGGGSGGGGSQVQLVQSGAEVKKPGASVKVSCKASGYTFAGFEMHWVRQAPGQGLEWMGAIDPKTGGTDYNQKFKDRVTMTRDTSISTAYMELSRLRSDDTAVYYCARDLGYFDVWGQGTLVTVSSGGGGSGGGGSGGGGSGGGGSDIQMTQSPSSLSASVGDRVTITCRASQDIRSNLNWYQQKPGGAVKLLIYYTSRLHSGVPSRFSGSGSGTDYTLTISSLQPEDFATYFCQQSEKLPRTFGGGTKVEIR
notes: Anti-CD40/CD137: Ly253-derived heavy chain; Ly253 light chain fused to Ly1630 scFv (VH-VL)
In the case of B2, in assay [1], the binding result is reported as “binds”. The concentration for a half-maximal effect (EC50 (read off the curve)) in assay [2] is roughly 0.2 µg/mL.

B3: Ly740 (bispecific antibody, human IgG1, kappa)
heavy: QVQLVQSGAEVKKPGASVKVSCKASGYTFAGFEMHWVRQAPGQGLEWMGAIDPKTGGTDYNQKFKDRVTMTRDTSISTAYMELSRLRSDDTAVYYCARDLGYFDVWGQGTLVTVSSASTKGPSVFPLAPSSKSTSGGTAALGCLVKDYFPEPVTVSWNSGALTSGVHTFPAVLQSSGLYSLSSVVTVPSSSLGTQTYICNVNHKPSNTKVDKKVEPKSCDKTHTCPPCPAPELLGPSVFLFPPKPKDTLMISRTPEVTCVVVDVSHEDPEVKFNWYVDGVEVHNAKTKPREEQYNSTYRVVSVLTVLHQDWLNGKEYKCKVSNKALPAPIEKTISKAKGQPREPQVYTLPPSREEMTKNQVSLTCLVKGFYPSDIAVEWESNGQPENNYKTTPPVLDSDGSFFLYSKLTVDKSRWQQGNVFSCSVMHEALHNHYTQKSLSLSPGK
light: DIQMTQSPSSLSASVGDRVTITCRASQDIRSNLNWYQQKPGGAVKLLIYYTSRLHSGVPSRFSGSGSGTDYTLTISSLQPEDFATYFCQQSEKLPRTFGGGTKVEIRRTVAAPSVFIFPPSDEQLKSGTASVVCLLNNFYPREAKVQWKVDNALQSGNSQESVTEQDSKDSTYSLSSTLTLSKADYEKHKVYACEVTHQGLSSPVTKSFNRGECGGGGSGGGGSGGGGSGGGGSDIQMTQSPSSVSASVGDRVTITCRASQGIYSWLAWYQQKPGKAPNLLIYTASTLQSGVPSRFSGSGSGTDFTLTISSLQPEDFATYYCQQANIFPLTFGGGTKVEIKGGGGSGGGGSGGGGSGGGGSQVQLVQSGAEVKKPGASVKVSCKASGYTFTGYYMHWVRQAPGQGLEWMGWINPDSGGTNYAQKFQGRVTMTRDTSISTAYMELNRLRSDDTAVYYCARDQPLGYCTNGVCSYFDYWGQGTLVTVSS
notes: Anti-CD40/CD137: Ly1630 heavy chain; Ly1630 light chain fused to Ly253 scFv (VL-VH)
With B3, the binding result in assay [1] is “binds”. In addition, in assay [2], the “EC50 (read off the curve)” value is roughly 0.04 µg/mL.

B4: Ly741 (bispecific antibody, human IgG1, kappa)
heavy: QVQLVQSGAEVKKPGASVKVSCKASGYTFAGFEMHWVRQAPGQGLEWMGAIDPKTGGTDYNQKFKDRVTMTRDTSISTAYMELSRLRSDDTAVYYCARDLGYFDVWGQGTLVTVSSASTKGPSVFPLAPSSKSTSGGTAALGCLVKDYFPEPVTVSWNSGALTSGVHTFPAVLQSSGLYSLSSVVTVPSSSLGTQTYICNVNHKPSNTKVDKKVEPKSCDKTHTCPPCPAPELLGPSVFLFPPKPKDTLMISRTPEVTCVVVDVSHEDPEVKFNWYVDGVEVHNAKTKPREEQYNSTYRVVSVLTVLHQDWLNGKEYKCKVSNKALPAPIEKTISKAKGQPREPQVYTLPPSREEMTKNQVSLTCLVKGFYPSDIAVEWESNGQPENNYKTTPPVLDSDGSFFLYSKLTVDKSRWQQGNVFSCSVMHEALHNHYTQKSLSLSPGK
light: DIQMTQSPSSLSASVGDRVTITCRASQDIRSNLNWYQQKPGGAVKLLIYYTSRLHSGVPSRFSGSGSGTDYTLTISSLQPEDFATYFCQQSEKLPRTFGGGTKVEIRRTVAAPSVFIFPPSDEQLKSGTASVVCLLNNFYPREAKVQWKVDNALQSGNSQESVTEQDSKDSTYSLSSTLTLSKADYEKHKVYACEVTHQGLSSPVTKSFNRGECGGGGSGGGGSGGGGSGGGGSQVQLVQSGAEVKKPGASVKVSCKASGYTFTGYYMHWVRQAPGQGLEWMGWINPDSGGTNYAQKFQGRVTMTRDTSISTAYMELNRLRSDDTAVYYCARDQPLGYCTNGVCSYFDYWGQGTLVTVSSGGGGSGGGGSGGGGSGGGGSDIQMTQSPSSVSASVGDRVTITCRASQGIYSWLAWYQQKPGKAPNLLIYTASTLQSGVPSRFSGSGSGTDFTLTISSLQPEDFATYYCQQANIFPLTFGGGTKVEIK
notes: Anti-CD40/CD137: Ly1630 heavy chain; Ly1630 light chain fused to Ly253 scFv (VH-VL)
In the case of B4, the binding result in assay [1] is recorded as “binds”. In addition, the 50% effective concentration (EC50 (read off the curve)) in assay [2] was roughly 0.04 µg/mL.

B5: Ly459 (bispecific antibody, human IgG1, kappa)
heavy: QVTLKESGPALVKPTQTLTLTCTFSGFSLSTSGTCVSWIRQPPGKALEWLATICWEDSKGYNPSLKSRLTISKDTSKNQAVLTMTNMDPVDTATYYCARREDSGYFWFPYWGQGTLVTVSSASTKGPSVFPLAPSSKSTSGGTAALGCLVKDYFPEPVTVSWNSGALTSGVHTFPAVLQSSGLYSLSSVVTVPSSSLGTQTYICNVNHKPSNTKVDKKVEPKSCDKTHTCPPCPAPELLGPSVFLFPPKPKDTLMISRTPEVTCVVVDVSHEDPEVKFNWYVDGVEVHNAKTKPREEQYNSTYRVVSVLTVLHQDWLNGKEYKCKVSNKALPAPIEKTISKAKGQPREPQVYTLPPSREEMTKNQVSLTCLVKGFYPSDIAVEWESNGQPENNYKTTPPVLDSDGSFFLYSKLTVDKSRWQQGNVFSCSVMHEALHNHYTQKSLSLSPGK
light: NIQMTQSPSSLSASVGDRVTITCKAGQNVNNYLAWYQQKPGKAPKVLIFNANSLQTGVPSRFSGSGSGTDFTLTISSLQPEDFATYYCQQYNSWPTFGGGTKVEIKRTVAAPSVFIFPPSDEQLKSGTASVVCLLNNFYPREAKVQWKVDNALQSGNSQESVTEQDSKDSTYSLSSTLTLSKADYEKHKVYACEVTHQGLSSPVTKSFNRGECGGGGSGGGGSGGGGSGGGGSQVQLVQSGAEVKKPGASVKVSCKASGYTFAGFEMHWVRQAPGQGLEWMGAIDPKTGGTDYNQKFKDRVTMTRDTSISTAYMELSRLRSDDTAVYYCARDLGYFDVWGQGTLVTVSSGGGGSGGGGSGGGGSGGGGSDIQMTQSPSSLSASVGDRVTITCRASQDIRSNLNWYQQKPGGAVKLLIYYTSRLHSGVPSRFSGSGSGTDYTLTISSLQPEDFATYFCQQSEKLPRTFGGGTKVEIR
notes: Anti-PD-1/CD137: Ly516 heavy chain; Ly516 light chain fused to Ly1630 scFv (VH-VL)
Consider B5, for which the 50% effective concentration (EC50 (read off the curve)) in assay [3] was roughly 0.2 µg/mL; in assay [4], roughly 0.2 µg/mL; in assay [5] it was roughly 0.02 µg/mL.

B6: Ly742 (bispecific antibody, human IgG1, kappa)
heavy: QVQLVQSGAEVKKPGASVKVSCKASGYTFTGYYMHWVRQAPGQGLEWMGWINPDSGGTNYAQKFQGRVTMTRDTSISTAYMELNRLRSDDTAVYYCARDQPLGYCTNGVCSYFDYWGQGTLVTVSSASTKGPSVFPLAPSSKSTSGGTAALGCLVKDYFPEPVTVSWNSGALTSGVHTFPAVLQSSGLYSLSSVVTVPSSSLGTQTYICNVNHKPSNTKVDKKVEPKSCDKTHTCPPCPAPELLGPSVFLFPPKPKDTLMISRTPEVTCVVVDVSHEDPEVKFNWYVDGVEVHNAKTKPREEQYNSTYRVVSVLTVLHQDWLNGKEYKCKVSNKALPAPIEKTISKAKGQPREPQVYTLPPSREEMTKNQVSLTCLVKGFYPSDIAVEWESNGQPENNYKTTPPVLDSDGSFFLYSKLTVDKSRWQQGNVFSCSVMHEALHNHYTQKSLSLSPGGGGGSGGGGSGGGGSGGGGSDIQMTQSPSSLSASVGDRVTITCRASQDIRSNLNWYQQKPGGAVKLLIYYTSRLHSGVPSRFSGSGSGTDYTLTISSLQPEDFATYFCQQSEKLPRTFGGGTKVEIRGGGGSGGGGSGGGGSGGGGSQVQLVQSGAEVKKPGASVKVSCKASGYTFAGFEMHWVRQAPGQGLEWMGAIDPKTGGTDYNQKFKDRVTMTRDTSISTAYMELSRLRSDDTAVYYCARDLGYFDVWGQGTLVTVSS
light: DIQMTQSPSSVSASVGDRVTITCRASQGIYSWLAWYQQKPGKAPNLLIYTASTLQSGVPSRFSGSGSGTDFTLTISSLQPEDFATYYCQQANIFPLTFGGGTKVEIKRTVAAPSVFIFPPSDEQLKSGTASVVCLLNNFYPREAKVQWKVDNALQSGNSQESVTEQDSKDSTYSLSSTLTLSKADYEKHKVYACEVTHQGLSSPVTKSFNRGEC
notes: Anti-CD40/CD137: Ly253-derived heavy chain fused to Ly1630 scFv (VL-VH); Ly253 light chain
For the molecule B6, the binding result in assay [1] is “binds”. The “EC50 (read off the curve)” value in assay [2] is roughly 0.07 µg/mL.

B7: Ly743 (bispecific antibody, human IgG1, kappa)
heavy: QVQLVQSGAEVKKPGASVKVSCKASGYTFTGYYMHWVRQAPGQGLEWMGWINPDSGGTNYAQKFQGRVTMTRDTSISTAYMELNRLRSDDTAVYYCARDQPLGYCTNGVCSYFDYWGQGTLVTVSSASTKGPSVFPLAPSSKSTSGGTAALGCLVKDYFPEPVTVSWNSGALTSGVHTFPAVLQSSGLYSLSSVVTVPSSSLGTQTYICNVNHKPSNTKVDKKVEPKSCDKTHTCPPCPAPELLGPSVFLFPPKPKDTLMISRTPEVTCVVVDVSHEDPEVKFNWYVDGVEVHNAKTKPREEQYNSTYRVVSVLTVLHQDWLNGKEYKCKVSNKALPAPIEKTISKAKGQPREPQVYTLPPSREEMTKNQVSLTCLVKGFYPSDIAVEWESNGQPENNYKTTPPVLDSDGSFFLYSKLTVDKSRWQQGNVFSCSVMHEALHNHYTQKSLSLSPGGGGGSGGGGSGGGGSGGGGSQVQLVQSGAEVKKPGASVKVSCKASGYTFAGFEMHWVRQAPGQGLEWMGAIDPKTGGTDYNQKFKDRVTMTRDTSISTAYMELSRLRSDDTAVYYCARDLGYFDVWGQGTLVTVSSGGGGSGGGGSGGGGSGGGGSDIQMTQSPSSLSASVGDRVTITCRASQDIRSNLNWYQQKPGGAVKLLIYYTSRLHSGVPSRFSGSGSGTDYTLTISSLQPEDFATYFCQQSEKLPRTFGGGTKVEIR
light: DIQMTQSPSSVSASVGDRVTITCRASQGIYSWLAWYQQKPGKAPNLLIYTASTLQSGVPSRFSGSGSGTDFTLTISSLQPEDFATYYCQQANIFPLTFGGGTKVEIKRTVAAPSVFIFPPSDEQLKSGTASVVCLLNNFYPREAKVQWKVDNALQSGNSQESVTEQDSKDSTYSLSSTLTLSKADYEKHKVYACEVTHQGLSSPVTKSFNRGEC
notes: Anti-CD40/CD137: Ly253-derived heavy chain fused to Ly1630 scFv (VH-VL); Ly253 light chain
As for B7, the binding result in assay [1] is “binds”. Moreover, in assay [2], the “EC50 (read off the curve)” value is roughly 0.1 µg/mL.
